The labels stand for the following.
T1: hBCMA-ECD-FC5VHH (human, UniProt Q02223 1-54, biotinylated in vivo ; biotinylated in vivo on the tag of the carrier part, which is not in the letters)
T1 construct: Made in HEK-293 cells, monomeric SEC fraction; The methods say about 500 RU captured on an SA chip; the results say immobilised on a CM5 chip; also called hBCMA-FC5; human BCMA-ECD; not shown: FC5 VHH carrier, any linker, and the His and biotinylation tags
T1 sequence: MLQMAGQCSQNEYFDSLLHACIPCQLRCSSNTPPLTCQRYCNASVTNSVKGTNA

B1: hBCMA-2C3 (VHH)
VHH: QVKLEESGGGLVQTGDSLRLACTISGRATDHFVMAWFRRAPGKEREYVATRVWSGGSPYYLDSAKGRFAIAIDNAKNTAYLQMNNLKPEDTAVYYCAATKDIMSRSYDYWGLGTQVTVSS
modifications: single biotin on the C-terminal AviTag
notes: Variant of E7 with the same CDRs; also called VHH #2; not shown: C-terminal His tag and AviTag biotinylation signal from pMRO vector
B2: hBCMA-H1 (VHH)
VHH: QVQLVESGGGLVQPGGSLRLSCAASGSGFGTHVMGWYRQAPGKPRELVAAISSAGSTFYRDSVKGRFTVSRDNAKNTMYLQMDRLKPEDTAVYYCNGAPWADEPVKVWNWGQGTQVTVSS
modifications: single biotin on the C-terminal AviTag
notes: not shown: C-terminal His tag and AviTag biotinylation signal from pMRO vector
B3: hBCMA-D2 (VHH)
VHH: QVQLVESGGGLVQPGGSLRLSCAASGSIFGTYNMGWYRQAPGKQRELVAAISSAGNTFYRDSVKGRFTVSRDNAKNTMYLQMDRLKYEDTAVYNCNGAPWGDALVKVWNWGQGTQVTVSS
modifications: single biotin on the C-terminal AviTag
notes: as for B2
B4: hBCMA-B5 (VHH)
VHH: QVKLEESGGGLVQPGGSLRLSCAASGSIFGTYNMGWYRQAPGKQRELVAAISSAGNTFYRDSVKGRFTVSRDNAKNTVYLQMDRLKYEDTAVYNCNGAPWADAEVKVYNWGQGTQVTVSS
modifications: single biotin on the C-terminal AviTag
notes: as for B2
B5: hBCMA-VcMRo1(V1/V6) (VHH)
VHH: EVQLQQSGGGLVQAGESLTISCAVFGDPITVATMGWYRQAPGKLRELVAAISSAGSTFYRDSVRGRFTVSRDNAKSTMYLQMDRLKVEDTAVYSCNGAPWGDAPVKVWTWGEGTQVTVSS
modifications: single biotin on the C-terminal AviTag
notes: as for B2
B6: hBCMA-F2 (VHH)
VHH: QVKLEESGGGLVKPGGSLRLSCGASGNSFGAYNMGWYRQAPGKQRELVAAISSTGNTFYRDSVRGRFTVSRDNAKSTMSLQMERLKPEDTAVYLCNGAPWGDDPVKVWSWGQGTQVTVSS
modifications: single biotin on the C-terminal AviTag
notes: as for B2
B7: hBCMA-3F2 (VHH)
VHH: QVQLVESGGRLVQTGDSLRLTCEISGHTSNQFVLAWFRRPPGKEREVVATRFWGGGSPYYSDSVRGRFAIAIDDAKNTAYLQMSSLKPEDTAVYYCAATKDILSRGYDYWGQGTQVTVSS
modifications: single biotin on the C-terminal AviTag
notes: as for B2
B8: hBCMA-2F10 (VHH)
VHH: QVQLVESGGGLVQSGNSLRLSCSISGHTTKNFVMAWFRRAPGKERAIVATRVWSGGSPWYSESAKGRFTISIDDARNTAYLQMNNLKPEDTAVYYCAATKDIMSRGYVYWGLGTQVTVSS
modifications: single biotin on the C-terminal AviTag
notes: as for B2

The first experiment addresses T1, hBCMA-ECD-FC5VHH. As to the kind of experiment: SPR. Background: SPR reads the build-up and loss of mass on a sensor chip optically.
For the molecule B1, the binding result is on record as “binds”.

The next experiment deals with T1, hBCMA-ECD-FC5VHH. The experiment is described as follows: SPR (Biacore T200), VHH 20-500 nM over BCMA-ECD surface, 25 C. The method, then:
For surface Plasmon resonance, 15 selected VHHs were passed though size exclusion columns, Superdex 75 (GE Healthcare), respectively, in 10 mM HEPES, pH 7.4, containing 150 mM NaCl, 3 mM EDTA, monomeric sdAb fractions were collected and protein concentrations were determined by measuring absorbance at 280 nm (A280). Analysis were performed with Biacore T200 instrument (GE Healthcare). All measurements were carried out at 25° C. in 10 mM HEPES, pH 7.4, containing 150 mM NaCl, 3 mM EDTA and 0.005% surfactant P20 (GE Healthcare). Approximately 500 RUs of the recombinant monomeric BCMA-ECD (obtained after SEC purification of the BCMA-ECD-FC5VHH) were captured on SA sensor chip (GE Healthcare) at a flow rate of 5 uL/min. Various concentration of the monomeric VHHs (20-500 nM) were injected over BCMA-ECD surface, respectively using an SA surface as a reference at a flow rate of 40 μL/min. Surfaces were generated by washing with running buffer. Data were analysed with BIAevaluation 4.1 software.
The monomeric fraction of all 15 VHHs were used for SPR experiment where the human BCMA-ECD or mouse BCMA was immobilized onto the CM5 dextran chip and various VHH concentration (20-500 nM) were passed over the sensor chip.
Molecule B2 had an equilibrium dissociation constant (Kd) of 0.152 nM, a koff of 0.000462 s⁻¹ and a kon of 3.05e+06 M⁻¹ s⁻¹.
The matching figures for B3: 0.403 nM, 0.000978 s⁻¹ and 2.42e+06 M⁻¹ s⁻¹.
In turn, B4 showed a Kd of 0.22 nM, a koff of 0.00237 s⁻¹ and a kon of 1.08e+07 M⁻¹ s⁻¹.
The matching figures for B5: 0.303 nM, 0.000262 s⁻¹ and 867000 M⁻¹ s⁻¹.
As to B6, the Kd amounted to 0.0683 nM, the koff was determined as 0.000349 s⁻¹ and the kon turned out to be 5.11e+06 M⁻¹ s⁻¹.
B7 gave a Kd of 0.631 nM, a koff of 0.00253 s⁻¹ and a kon of 4.01e+06 M⁻¹ s⁻¹.
The matching figures for B8: 0.216 nM, 0.00091 s⁻¹ and 4.22e+06 M⁻¹ s⁻¹.

The term Kd denotes the equilibrium constant for the complex coming apart. As usually defined, the koff is the first-order rate constant of dissociation. The low end stands for a long-lived complex, the high end for a short-lived complex. By kon is commonly meant the rate constant with which the complex forms. A high value points to faster complex formation.

The record behind these values is US20250000976A1 (NATIONAL RESEARCH COUNCIL OF CANADA, published 2025).
